T1: P97 cilium adhesin peptidic complex (F2P97 / R1-containing section, SELEX target) (Mycoplasma hyopneumoniae)
T1 chain: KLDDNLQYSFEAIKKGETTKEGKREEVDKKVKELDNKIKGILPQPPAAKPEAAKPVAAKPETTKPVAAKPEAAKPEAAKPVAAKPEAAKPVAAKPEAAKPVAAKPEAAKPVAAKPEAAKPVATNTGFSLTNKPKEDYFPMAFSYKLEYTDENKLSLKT


Target: T1, P97 cilium adhesin peptidic complex …
Test: ELISA; reverse screening on streptavidin plate, 37 C
Details: tags: His tag (Ni-NTA captured); label: biotin in reverse screening
Method: Reverse Screening of Aptamer—Selected ssDNA molecules from each individual clone were biotinylated using the B-T3 which is same sequence with 5′ primer (T3 primer), and Klenow fragment (2 unit/ml). To prepare single stranded biotin conjugated APT3Cooc10 aptamer for the reverse screening. T3 Primer was Biotin labelled. A 96-well flat bottom ELISA plate was prepared by coating each well with 100 μl of streptavidin (100 μg/ml) diluted in 0.1 M NaHCO₃ following by a 37° C. overnight incubation. Following several washings with PBS, wells were blocked with 200 μl of PBS containing 1% BSA for 2 hours at room temperature and subsequent washing three times with PBS-T (10 mM PBS containing 0.05% (v/v) Tween-20). Thereafter, 100 μl of 2.5 pmole/100 μl biotinylated-ssDNA were added to the wells and incubated at 37° C. for 2 hours followed by washing four times with PBS-T. T3 primer was used as negative control. Following washing, 100 μl of fluid containing 2 μg histidine labelled P97 peptidic complex were added to the indicated wells and incubated at 37° C. for 2 hours. […]
Enzyme-Linked Immunosorbent Assay (ELISA)—The ELISA tests were carried-out following all the guidelines provided with the DAKO kit. Reaction was terminated with 100 μl of 0.5M H₂SO₄, and the plates were read with a multichannel spectrophotometer at 450 nm.

| Binder | binding result |
| --- | --- |
| APT3Histo1 (ssDNA) DNA: GCCTGTTGTGAGCCTCCTAACCGCACGTGGGTATTCTAAGTGCGGTAGCTCAATGGTGAGCGATGAGCATCATGCTTATTCTTGTCTCCC | binds |
| APT3Cooc3 (ssDNA) DNA: GCCTGTTGTGAGCCTCCTAACTAGCTCGTAGAAAAAAAATATAGCGTGTGCTGGGACTGCTCGGGATTGCGGACACATGCTTATTCTTGTCTCCC | binds |

— patent publication US20220186225, “COMPOUNDS FOR DETECTING AND TREATING MYCOPLASMA HYOPNEUMONIAE” (AEROVIRUS TECHNOLOGIES INC., published 2022)
